Data on 1 substance can be found in PMC6104826.

The assay deals with HA-tagged cMyBP-C construct C6–C8 (human). Put plainly: co-IP; HEK293 cells co-expressing cMyc-tagged BT (RyR) constructs with HA-tagged cMyBP-C constructs; HA–cMyBP-C immunoprecipitated with Ab^HA from solubilised cell lysates, co-precipitated BT detected by western blotting with Ab^cMyc; non-immune rabbit IgG as negative control; densitometry.
Chain of HA-tagged cMyBP-C construct C6–C8 (human) (Q14896 whole entry): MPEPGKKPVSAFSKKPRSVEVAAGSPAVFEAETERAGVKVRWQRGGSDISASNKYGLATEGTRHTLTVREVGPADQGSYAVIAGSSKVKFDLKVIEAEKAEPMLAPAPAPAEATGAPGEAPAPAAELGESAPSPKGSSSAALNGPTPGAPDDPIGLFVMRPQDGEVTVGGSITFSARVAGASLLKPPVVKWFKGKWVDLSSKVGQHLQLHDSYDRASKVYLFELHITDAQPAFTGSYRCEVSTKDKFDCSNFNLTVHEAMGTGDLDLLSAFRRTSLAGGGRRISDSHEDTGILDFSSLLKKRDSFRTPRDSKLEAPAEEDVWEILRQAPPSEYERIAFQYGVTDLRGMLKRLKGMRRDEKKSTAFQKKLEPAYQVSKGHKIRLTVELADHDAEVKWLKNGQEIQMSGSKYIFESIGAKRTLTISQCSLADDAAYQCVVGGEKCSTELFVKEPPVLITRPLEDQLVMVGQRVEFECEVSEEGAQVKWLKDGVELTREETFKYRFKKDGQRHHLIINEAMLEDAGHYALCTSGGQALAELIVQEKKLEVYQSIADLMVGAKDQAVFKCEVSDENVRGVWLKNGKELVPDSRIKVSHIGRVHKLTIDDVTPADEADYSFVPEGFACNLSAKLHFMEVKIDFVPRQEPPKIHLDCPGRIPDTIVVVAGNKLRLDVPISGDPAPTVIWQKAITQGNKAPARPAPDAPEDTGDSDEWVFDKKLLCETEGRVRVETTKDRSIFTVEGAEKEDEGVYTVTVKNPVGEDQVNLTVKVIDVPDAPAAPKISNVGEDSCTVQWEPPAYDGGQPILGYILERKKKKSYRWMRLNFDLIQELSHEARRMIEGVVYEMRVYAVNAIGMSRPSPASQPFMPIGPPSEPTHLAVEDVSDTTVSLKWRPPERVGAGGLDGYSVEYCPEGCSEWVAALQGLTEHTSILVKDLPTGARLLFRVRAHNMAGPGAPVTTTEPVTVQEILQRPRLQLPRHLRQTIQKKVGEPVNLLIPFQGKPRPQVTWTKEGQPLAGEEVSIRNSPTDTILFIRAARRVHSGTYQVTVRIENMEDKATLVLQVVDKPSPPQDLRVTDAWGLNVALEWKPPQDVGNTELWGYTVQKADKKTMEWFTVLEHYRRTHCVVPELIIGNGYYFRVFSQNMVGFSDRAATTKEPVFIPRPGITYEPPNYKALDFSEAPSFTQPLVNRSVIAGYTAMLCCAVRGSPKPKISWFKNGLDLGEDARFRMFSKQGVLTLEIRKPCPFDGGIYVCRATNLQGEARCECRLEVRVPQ

“BT4L (cMyc-tagged RyR2 residues 1–906) (from UniProt Q92736 1-906) (domain or fragment)”: the fold signal against C8–C10 was 3 fold.
